One molecule from patent US20100150906A1 (AC IMMUNE S A, published 2010) can be followed below.

For orientation: Kd means the free concentration of one partner at which half of the binding sites on the other are occupied at equilibrium, for simple one-to-one binding. Low values mean higher affinity, high ones lower affinity. A word on the koff: it is a measure of how fast the partners let go of each other. The low end stands for slow dissociation, the high end for fast dissociation. For orientation: kon means a measure of how fast the partners come together. High values mean fast association, low ones slow association.

No end group written: not given here.

The target of experiment [1] is T1, soluble polymeric amyloid beta (oligomers) (UniProt P05067 672-713).
T1 construct: domain: amyloid beta 1-42; also called amyloid oligomers; Abeta oligomer
T1 sequence (P05067 672-713 limits assumed): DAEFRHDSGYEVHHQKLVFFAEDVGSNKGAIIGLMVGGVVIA
Description: ELISA on coated amyloid (55 µg/ml); mC2 at 0.078 ug/ml. How it is done: (§1) In order to evaluate the specificity of mC2 to different stages of polymerized amyloid protein, monomeric, polymeric soluble and fibrillic amyloid, an ELISA coated with these different stages of polymeric beta-amyloid was performed (FIG. 9). Monomers were prepared according to a modified method published by (Klein, 2002), soluble polymeric amyloid beta according to (Barghorn et al., 2005), whereas fibers were performed by incubation of amyloid (Bachem, Switzerland) with a final concentration of 1 μg/μl in Tris/HCl pH 7.4 at 37° C. for 5 days followed by a centrifugation step (10,000 rpm for 5 minutes). Then amyloid polymers were coated on an ELISA plates with a final concentration of 55 μg/ml and binding affinity ELISA by using an anti-mouse IgG monoclonal antibody (Jackson) labelled with alkaline phosphate was performed.
(An ELISA detects its analyte on a solid surface through an enzyme-linked reagent.)

Experiment [2] concerns the target T2, amyloid beta 1-42 fibers (UniProt P05067 672-713).
T2 construct: domain: amyloid beta 1-42; Many copies per fiber; also called Aβ1-42 fibers; fibrillar Aβ1-42
Described as above. How it is done: as §1

In experiment [3] the target is T3, amyloid beta 1-42 monomers (UniProt P05067 672-713).
T3 construct: domain: amyloid beta 1-42; also called Aβ1-42 monomers; amyloid monomers
T3 sequence (P05067 672-713 limits assumed): as above
The description is as above. As to the method:
as §1

Experiment [4] has as its target T1, soluble polymeric amyloid beta …. Kind of experiment: ELISA on coated amyloid (55 µg/ml); mC2 at 0.156 ug/ml. How it is done: as §1
Experiment [5] has as its target T2, amyloid beta 1-42 fibers. The experiment is described as above. How it is done: as §1
Experiment [6] addresses T3, amyloid beta 1-42 monomers. The experiment is described as above. As to the method:
as §1

The target in experiment [7] is T2, amyloid beta 1-42 fibers. Description: SPR (BIACORE), Aβ1-42 fibers immobilized on CM5 chip, antibody 0.05-1.0 µM. How it is done:
BIACORE® technology utilizes changes in the refractive index at the surface layer upon binding of the antibody to the antigen immobilized on the layer. Binding is detected by surface plasmon resonance (SPR) of laser light refracting from the surface. Analysis of the signal kinetics on rate and off rate allows the discrimination between non-specific and specific interaction. The concentration of antibody used was in the range of 0.05 μM to 1.0 μM.
On the technique in general: In SPR one partner is held on a chip, and binding of the other changes the refractive index at the surface.

Experiment [8] has as its target T1, soluble polymeric amyloid beta …. Kind of experiment: ELISA on coated amyloid (55 µg/ml); mC2 at 0.625 ug/ml. How it is done:
as §1

Experiment [9] has as its target T2, amyloid beta 1-42 fibers. Described as above. As to the method: as §1
Experiment [10] has as its target T3, amyloid beta 1-42 monomers. Described as above. How it is done: as §1
The target in experiment [11] is T4, peptide p15-23 A23 of the third library (D23 to alanine) (also: biotinylated, position not given here).
T4 peptide: QKLVFFAEA
Description: ELISA on third peptide library, antibody at 10 µg/ml. How it is done: (§2) Epitope mapping of the monoclonal antibody mACI-01-Ab7 C2 was performed by ELISA using three different peptide libraries. One library comprises a total of 33 biotinylated peptides covering the complete amino acid (aa) sequence of Aβ1-42 (produced by Mimotopes and purchased from ANAWA Trading SA), the second library contains biotinylated peptides using peptide 12 (aa12-20 of Aβ) from the first peptide library and substituting each amino acid in the sequence by an alanine (see […] below), and the third library contains biotinylated peptides 13, 14, or 15 (aa 13-21, 14-22 or 15-23 of Aβ) and substituting in each case the last amino acids to an alanine or to a glycine for aa 21 which is already an alanine (see table 5 below). A biotinylated complete Aβ1-42 peptide was used as positive control (Bachem). Epitope mapping was done according to the manufacturer's (Mimotopes) instructions. Briefly, Streptavidin coated plates (NUNC) were blocked with 0.1% BSA in PBS overnight at 4° C. After washing with PBS-0.05% Tween 20, plates were coated for 1 hour at RT with the different peptides from the library, diluted in 0.1% BSA, 0.1% Sodium Azide in PBS to a final concentration of 10 μM. After washing, plates were incubated for 1 hour at RT with the mACI-01-Ab7 C2 antibody or an isotype control mouse IgG2b antibody, diluted to 10 μg/ml in 2% BSA, 0.1% Sodium Azide in PBS. Plates were washed again and incubated with alkaline phosphatase conjugated goat anti mouse IgG for 1 h at RT.

Experiment [12] deals with T5, peptide p13-21 G21 of the third library (A21 to glycine) (also: biotinylated, position not given here).
T5 peptide: HHQKLVFFG
The description is as above. As to the method:
as §2

The target in experiment [13] is T6, peptide p14-22 A22 of the third library (E22 to alanine) (also: biotinylated, position not given here).
T6 peptide: HQKLVFFAA
The description is as above. As to the method: as §2

Experiment [14] addresses peptide A16 of the second library (aa 12-20, K16 to alanine) (biotinylated (position not given)). Description: ELISA on biotinylated peptides on streptavidin plates. As to the method:
as §2

Experiment [15] concerns the target peptide A19 of the second library (aa 12-20, F19 to alanine) (biotinylated (position not given)). The experiment is described as above. As to the method: as §2
The target of experiment [16] is T7, peptide A20 of the second library (aa 12-20, F20 to alanine) (also: biotinylated, position not given here).
T7 peptide: VHHQKLVFA
The experiment is described as above. As to the method:
as §2

Experiment [17] has as its target T8, peptide A17 of the second library (aa 12-20, L17 to alanine) (also: biotinylated, position not given here).
T8 peptide: VHHQKAVFF
Described as above. How it is done:
as §2

T2 sequence (P05067 672-713 limits assumed): as above

B1: mouse monoclonal antibody ACI-01-Ab7C2 (antibody, V domains shown)
VH: EVQLVESGGGLVQPGGSLKLSCAASGFTFSSYGMSWVRQTPDKRLELVASINSNGGSTYYPDSVKGRFTISRDNAKNTLYLQMSSLKSEDTAMYYCASGDYWGQGSTLTVSS
VL: DVVMTQTPLSLPVSLGDQASISCRSSQSLVYSNGDTYLHWYLQKPGQSPKLLIYKVSNRFSGVPDRFSGSGSGTDFTLKISRVEAEDLGVYFCSQSTHVPWTFGGGTKLEIK
notes: also called mC2; mACI-01-Ab7 C2
With B1, the O.D is 0.652 O.D in experiment [1]; 0.499 O.D with amyloid beta 1-42 fibers [2]; 0.333 O.D in experiment [3]; 1.04 O.D in experiment [4]; 0.631 O.D with amyloid beta 1-42 fibers [5]; 0.397 O.D in experiment [6]. The figures for the O.D (in experiment [8]; with amyloid beta 1-42 fibers [9]; in [10]) were 2.81 O.D, 1.62 O.D and 1.16 O.D, respectively. Further, in the experiment with amyloid beta 1-42 fibers [7], the Kd was 41 nM. The molecule also showed a koff with amyloid beta 1-42 fibers [7] of 0.00099 s⁻¹. Moreover, the association rate constant (kon) with amyloid beta 1-42 fibers [7] was found to be 24000 M⁻¹ s⁻¹. The binding result in experiment [11] is on record as “binds”; in experiment [12], “binds”; in [13] it was “binds”; in experiment [14] it was “no binding (tested: 10 µg/ml)”; in experiment [15], “no binding (tested: 10 µg/ml)”; in experiment [16] it was “no binding (tested: 10 µg/ml)”. The binding result in [17] is on record as “no binding (tested: 10 µg/ml)”.
